Test results taken from US20180105596A1 (ELSALYS BIOTECH, published 2018).
Residue numbers refer to the chain shown, from its start.

T1: hTyro 3-ECD
T1 construct: not the His-Strep tagged ECD m13; also called Recombinant Human Dtk-Fc Chimera (R&D Systems 859-DK-100); not shown: Human Fc, and any linker, of the commercial chimera (R&D Systems 859-DK-100)
T1 chain: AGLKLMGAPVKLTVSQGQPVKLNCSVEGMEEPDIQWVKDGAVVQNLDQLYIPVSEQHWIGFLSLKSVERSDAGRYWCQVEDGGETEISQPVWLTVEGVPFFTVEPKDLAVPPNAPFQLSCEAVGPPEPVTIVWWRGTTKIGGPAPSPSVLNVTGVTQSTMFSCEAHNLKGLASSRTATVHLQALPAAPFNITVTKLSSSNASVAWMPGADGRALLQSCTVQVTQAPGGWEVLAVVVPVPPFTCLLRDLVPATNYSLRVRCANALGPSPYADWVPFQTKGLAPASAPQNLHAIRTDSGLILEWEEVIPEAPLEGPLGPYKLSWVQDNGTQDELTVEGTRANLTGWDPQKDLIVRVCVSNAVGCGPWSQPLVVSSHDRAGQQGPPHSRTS

T2: extracellular domain of human Axl, Fc fusion (R&D Systems 154-AL-100) (human, UniProt P30530 26-451)
T2 construct: Bought protein; also called hAxl; hAXL; not shown: Fc of the bought ECD-Fc fusion
T2 sequence: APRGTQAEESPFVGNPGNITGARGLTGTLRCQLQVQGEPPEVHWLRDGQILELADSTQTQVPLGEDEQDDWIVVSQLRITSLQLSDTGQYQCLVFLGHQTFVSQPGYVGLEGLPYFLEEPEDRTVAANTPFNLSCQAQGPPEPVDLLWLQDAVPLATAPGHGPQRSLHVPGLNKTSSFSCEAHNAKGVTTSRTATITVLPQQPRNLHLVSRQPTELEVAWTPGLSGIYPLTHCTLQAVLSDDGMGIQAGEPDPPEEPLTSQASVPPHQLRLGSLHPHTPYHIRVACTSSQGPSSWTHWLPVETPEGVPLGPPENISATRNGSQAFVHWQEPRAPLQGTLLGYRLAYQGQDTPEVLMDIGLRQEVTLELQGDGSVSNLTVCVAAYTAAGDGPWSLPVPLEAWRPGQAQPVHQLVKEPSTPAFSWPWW

T3: extracellular domain of human Mer, Fc fusion (R&D Systems 891-MR-100) (human, UniProt Q12866 21-505)
T3 construct: Bought protein; also called hMer; hMER; not shown: Fc of the bought ECD-Fc fusion
T3 sequence: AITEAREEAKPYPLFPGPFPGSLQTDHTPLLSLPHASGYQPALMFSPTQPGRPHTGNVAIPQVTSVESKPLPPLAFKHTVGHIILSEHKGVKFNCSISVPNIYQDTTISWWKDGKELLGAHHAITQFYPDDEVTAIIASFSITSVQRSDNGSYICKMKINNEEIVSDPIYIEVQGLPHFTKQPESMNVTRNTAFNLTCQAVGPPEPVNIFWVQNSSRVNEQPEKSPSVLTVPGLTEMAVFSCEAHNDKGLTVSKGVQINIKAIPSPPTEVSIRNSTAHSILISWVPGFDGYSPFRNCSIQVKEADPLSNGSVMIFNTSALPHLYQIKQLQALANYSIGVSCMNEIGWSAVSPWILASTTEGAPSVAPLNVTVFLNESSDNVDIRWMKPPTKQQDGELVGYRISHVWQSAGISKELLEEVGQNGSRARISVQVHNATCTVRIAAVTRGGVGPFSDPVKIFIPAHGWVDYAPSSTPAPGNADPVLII

B1: anti-Tyro3 scFv 2414 (scFv, V domains shown)
VH: EVQLVQSGADVKKPGASLTISCQASGYTFTDYWISWVRQKPGKGLEWMGQINRHASNTMYGPSFQGHVTISADRSTATAYLQWRSLEASDTAMYYCVRSGGATSGGTIPEYYQHWGPGTLVTVSS
VL: SYELTQPPSVSVSPGQTARITCSGDALPKKYAYWYQQKSGQAPVLVIYEDWKRASGIPERFSGSSSGTMATLTISGAQVEDEADYYCYSQERKGNYFVFGGGTKLTVL
notes: Tested as a single-chain Fv made in E. coli
B2: anti-Tyro3 scFv 2415 (scFv, V domains shown)
VH: B1 VH with N52R, R53G, H54P, N57A, M59H, S99H, G100Q, G101Q, A102Q
VL: B1 VL with W51K, A54I, Q90T, E91S, R92T, K93G, F97M
notes: as for B1
B3: anti-Tyro3 scFv 2711 (scFv, V domains shown)
VH: B1 VH with N52R, R53G, H54Q, A55H, N57S, M59L, S99H, G101A, A102S
VL: B1 VL with W51A, A54S, Q90L, E91S, R92D, K93S
notes: as for B1
B4: anti-Tyro3 scFv 2709 (scFv, V domains shown)
VH: B1 VH with Q50A, N52S, H54N, A55G, N57T, M59Y, A102L, T122P
VL: B1 VL with W51K, A54V, Q90L, E91A, R92V, K93D, F97G
notes: as for B1
B5: anti-Tyro3 scFv 2412 (scFv, V domains shown)
VH: B1 VH with Q50R, N52R, R53P, H54L, A55L, N57H, G100W, G101L
VL: B1 VL with W51A, A54V, Q90A, E91S, R92A, K93N, F97R
notes: as for B1
B6: anti-Tyro3 scFv 2713 (scFv, V domains shown)
VH: B1 VH with Q50R, N52S, A55G, N57Q, M59Y, S99A, A102Q
VL: B1 VL with W51H, Q90I, E91S, R92P, K93A, F97G
notes: as for B1
B7: anti-Tyro3 scFv 2410 (scFv, V domains shown)
VH: B1 VH with N52V, R53P, H54R, N57R, M59N, S99P, G100Y, G101F, A102Q
VL: B1 VL with W51E, K93N, F97A
notes: as for B1
B8: anti-Tyro3 scFv 2717 (scFv, V domains shown)
VH: EVQLVQSGADVKKPGASLTISCQASGYTFTDYWISWVRQKPGKGLEWMGEIFLPPSTTVYGPSFQGHVTISADRSTATAYLQWRSLEASDTAMYYCVRQTRLTSGGTIPEYYQHWGPGTLVTVSS
VL: B1 VL with W51N, A54G, Q90K, E91S, R92P, K93E, F97M
notes: as for B1

Target: T1, hTyro 3-ECD
Test: ELISA, ECD coated 1 µg/well, scFv 1 µg/mL, anti-tag-HRP
Description: (§1) Extracellular domains of hTyro 3 (859-DK-100), hAxl (154-AL-100) or hMer (891-MR-100) from R&D Systems were coated onto 96-wells microtiter plates (1 μg/well) in PBS and incubated overnight at 4° C. Plates were washed three times with PBS and blocked in PBS/3% BSA for 1 hour at RT. Plates were washed as above and scFvs were added at 1 μg/mL (diluted in PBS) and incubated for 1 hour at RT. Plates were washed three times with PBST (PBS/0.01% Tween-20) and secondary antibody anti-FLAG-HRP was added (Abcam, ab49763, 1/5000 dilution in blocking buffer) for 1 hour at RT. Plates were washed as above with PBST and signal was developed with Ultra-TMB reagent (Thermo Scientific, 34028).

Binder | binding result
B1 | binds
B2 | binds
B3 | binds
B4 | binds
B5 | binds
B6 | binds
B7 | binds

What follows are binders tested against T2, extracellular domain of human Axl, Fc … in the same assay as above.
Description: as §1

Binder | binding result
B1 | no binding (tested: 1 µg/mL)
B2 | no binding (tested: 1 µg/mL)
B3 | no binding (tested: 1 µg/mL)
B4 | no binding (tested: 1 µg/mL)
B5 | no binding (tested: 1 µg/mL)
B6 | no binding (tested: 1 µg/mL)
B8 | no binding (tested: 1 µg/mL)
B7 | no binding (tested: 1 µg/mL)

These binders were tested against T3, extracellular domain of human Mer, Fc … in the same assay as above.
Description: as §1

Binder | binding result
B1 | no binding (tested: 1 µg/mL)
B2 | no binding (tested: 1 µg/mL)
B3 | no binding (tested: 1 µg/mL)
B4 | no binding (tested: 1 µg/mL)
B5 | no binding (tested: 1 µg/mL)
B6 | no binding (tested: 1 µg/mL)
B8 | no binding (tested: 1 µg/mL)
B7 | no binding (tested: 1 µg/mL)
